# Source: paper PMC5507604, “Structure of the Neisseria Adhesin Complex Protein (ACP) and its role as a novel lysozyme inhibitor” (PLoS Pathogens, 2017)
# T1: human lysozyme (HL) (human, UniProt P61626 19-148, NT-647-NHS fluorescent dye (in the MST experiment only))
# T1 construct: human C-type lysozyme; MST used labelled recombinant HL; also called rHL; recombinant HL; source: bought: Sigma-Aldrich (recombinant HL, MST)
# T1 sequence (looked up): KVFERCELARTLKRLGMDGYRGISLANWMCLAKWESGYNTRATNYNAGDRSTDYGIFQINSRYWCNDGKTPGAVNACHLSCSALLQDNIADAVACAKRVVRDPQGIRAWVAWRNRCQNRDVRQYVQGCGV
# B1: recombinant Neisseria meningitidis Adhesin Complex Protein Type I (rNm-ACPI) (natural protein)
# chain: AGTDNPTVAKKTVSYVCQQGKKVKVTYGFNKQGLTTYASAVINGKRVQMPVNLDKSDNVETFYGKEGGYVLGTGVMDGKSYRKQPIMITAPDNQIVFKDCSPR
# notes: Adhesin Complex Protein (ACP) Type I, encoded by Allele 1, N. meningitidis serogroup B strain MC58 (NMB2095/NEIS2075); mature polypeptide of 103 residues (amino acids 22-124), mass 12,306 Da with the tag; disulphide bond Cys38-Cys121; Cloned between NdeI and XhoI of pET22b(+); The same construct, 15N-labelled, was used for NMR; also called NMB2095; NEIS2075; source: E. coli BL21 (DE3) pLysS, …
# How the values were obtained:
# [1] = target: hen egg-white lysozyme (Hewl) (hen (chicken)) (UniProt P00698)
# Sequence of hen egg-white lysozyme (Hewl) (hen (chicken)) (P00698 19-147): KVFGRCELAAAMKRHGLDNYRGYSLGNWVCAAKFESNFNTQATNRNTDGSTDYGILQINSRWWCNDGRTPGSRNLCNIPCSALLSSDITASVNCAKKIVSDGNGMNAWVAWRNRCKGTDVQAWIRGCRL
# [2] = target: human lysozyme (HL) (human) (UniProt P61626)
# human lysozyme (HL) = target: T1, human lysozyme (HL); test: MST; NT-647-labelled rHL (8.3 nM) constant, 16 two-fold serial dilutions of 2.5 mM rNm-ACPI mixed 1:1; 50 mM Tris pH 7.4, 150 mM NaCl, 10 mM MgCl2, 0.05% (v/v) Tween-20; 20% and 40% MST power, LED 20%; triplicate; conditions: both partners purified
molecule,measurement,setting,value
Nm-ACPI triple mutant Asn79Ala/Tyr84Ala/Gly95Ala (natural protein),"inhibition of Hewl (EnzChek assay, initial rate period) compared with wild-type Nm-ACPI (% reduced activity)",[1],39
recombinant Neisseria gonorrhoeae Adhesin Complex Protein (rNg-ACP) (natural protein),"protection of M. lysodeikticus cells (1 mg/ml) against lysis by HL (2 μg/ml), OD 595 nm over 2 h and at 24 h, rNg-ACP 0-0.5 μg/ml; ~30–60% protection at 0.1 μg/ml, not protective below 0.1 μg/ml",[2],80 to 100 % protection
B1,Kd,human lysozyme (HL),11 µM
